Binding result and Kd data for seven molecules are collected here from paper doi:10.1101/2022.10.12.511839 (bioRxiv, 2022).

In general, Kd refers to the concentration at which binding is half-saturated. Lower therefore signals tighter binding.

T1: human Scribble PDZ3 domain (1005-1094) (human, UniProt Q14160 1005-1094)
T1 sequence (looked up): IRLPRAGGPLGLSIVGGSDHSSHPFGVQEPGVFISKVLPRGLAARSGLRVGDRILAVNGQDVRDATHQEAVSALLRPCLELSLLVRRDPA

The first experiment concerns the target T1, human Scribble PDZ3 domain (1005-1094). The experiment is described as follows: ITC. A general note: Isothermal titration calorimetry measures the heat released or taken up as one component is titrated into another.
WRSRRRETAL [HPV33 E6 C-terminal PBM 10-mer peptide (WRSRRRETAL)]: the binding result was “binds”.

RRRIRRETQV [HPV70 E6 C-terminal PBM 10-mer peptide (RRRIRRETQV)]: the binding result was “binds”.

In the case of TSRQATESTV [HPV66 E6 C-terminal PBM 10-mer peptide (TSRQATESTV)], the binding result was “binds”.

Turning to RLQRRRETQV [HPV18 E6 C-terminal PBM 10-mer peptide (RLQRRRETQV)], the binding result is given as “binds”.

As to RTRQRNETQV [HPV51 E6 C-terminal PBM 10-mer peptide (RTRQRNETQV)], the binding result is “binds”.

As to WRRPRTETQV [HPV31 E6 C-terminal PBM 10-mer peptide (WRRPRTETQV)], the binding result is on record as “binds”.

For another experiment, the target named is human Scribble PDZ1 domain (728-815) (human, UniProt Q14160 728-815). The experiment is described as follows: ITC.
human Scribble PDZ1 domain (728-815), sequence (Q14160 728-815): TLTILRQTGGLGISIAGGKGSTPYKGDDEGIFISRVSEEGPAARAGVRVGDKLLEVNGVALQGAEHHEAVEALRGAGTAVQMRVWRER
WRSRRRETAL [HPV33 E6 C-terminal PBM 10-mer peptide (WRSRRRETAL)]: the binding result was “binds”.

As for SSRTRRETQL [HPV16 E6 C-terminal PBM 10-mer peptide (SSRTRRETQL)], binding was put at a Kd of 9.4 µM.

For the molecule RRRIRRETQV [HPV70 E6 C-terminal PBM 10-mer peptide (RRRIRRETQV)], the binding result is listed as “binds”.

For TSRQATESTV [HPV66 E6 C-terminal PBM 10-mer peptide (TSRQATESTV)], the binding result is “binds”.

In the case of RTRQRNETQV [HPV51 E6 C-terminal PBM 10-mer peptide (RTRQRNETQV)], the binding result is on record as “binds”.

On to WRRPRTETQV [HPV31 E6 C-terminal PBM 10-mer peptide (WRRPRTETQV)], for which the binding result was “binds”.
